Blank lines part the entries; values can stand above or below the binder they belong to.
What was measured:
CD22 FC融合标签蛋白 [1] = biological target: CD22 FC融合标签蛋白 (UniProt P20273); experiment: ELISA, purified antibody at dilution 25K on coated CD22 protein (1 μg/ml)
CD22 FC融合标签蛋白 [2] = biological target: CD22 FC融合标签蛋白 (UniProt P20273); experiment: ELISA, purified antibody at dilution 125K on coated CD22 protein (1 μg/ml)
CD22 FC融合标签蛋白 [3] = biological target: CD22 FC融合标签蛋白 (UniProt P20273); experiment: ELISA, purified antibody at dilution 3125k on coated CD22 protein (1 μg/ml)
CD22 FC融合标签蛋白 [4] = biological target: CD22 FC融合标签蛋白 (UniProt P20273); experiment: indirect ELISA, B cell clone supernatant on coated CD22 protein (1 μg/ml)
CD22 FC融合标签蛋白 [5] = biological target: CD22 FC融合标签蛋白 (UniProt P20273); experiment: ELISA, purified antibody at dilution 625K on coated CD22 protein (1 μg/ml)
CD22 on Raji细胞 = biological target: T1, CD22 on Raji细胞 (UniProt P20273 20-847, limits assumed); experiment: flow cytometry on Raji cells, antibody at several concentrations
T1 construct: whole, on cells; also called 天然细胞表面CD22蛋白
T1 sequence (looked up): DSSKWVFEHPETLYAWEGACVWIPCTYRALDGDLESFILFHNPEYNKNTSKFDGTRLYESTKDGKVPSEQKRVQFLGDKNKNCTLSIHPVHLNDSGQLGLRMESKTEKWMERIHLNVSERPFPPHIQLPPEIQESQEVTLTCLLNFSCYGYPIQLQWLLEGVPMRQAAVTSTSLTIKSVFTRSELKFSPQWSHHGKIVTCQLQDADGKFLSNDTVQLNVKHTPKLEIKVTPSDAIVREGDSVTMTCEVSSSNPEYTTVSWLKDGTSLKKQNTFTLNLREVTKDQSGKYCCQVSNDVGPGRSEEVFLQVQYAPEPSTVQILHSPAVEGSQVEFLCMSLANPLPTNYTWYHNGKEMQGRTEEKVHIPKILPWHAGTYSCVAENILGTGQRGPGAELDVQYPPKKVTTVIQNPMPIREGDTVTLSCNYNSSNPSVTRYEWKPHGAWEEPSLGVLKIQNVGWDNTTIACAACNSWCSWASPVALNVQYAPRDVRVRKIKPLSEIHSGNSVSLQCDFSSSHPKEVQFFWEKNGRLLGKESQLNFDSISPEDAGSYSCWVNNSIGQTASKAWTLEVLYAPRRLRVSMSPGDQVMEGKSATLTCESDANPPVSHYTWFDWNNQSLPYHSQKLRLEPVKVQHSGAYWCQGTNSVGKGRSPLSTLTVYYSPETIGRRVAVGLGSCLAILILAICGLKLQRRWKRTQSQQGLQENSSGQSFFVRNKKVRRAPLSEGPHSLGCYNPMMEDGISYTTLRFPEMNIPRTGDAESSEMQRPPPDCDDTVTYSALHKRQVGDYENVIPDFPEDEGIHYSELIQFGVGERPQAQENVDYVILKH

CD22 FC融合标签蛋白 [6] = biological target: CD22 FC融合标签蛋白 (UniProt P20273); experiment: ELISA, purified antibody at dilution 15625k on coated CD22 protein (1 μg/ml)
CD22 FC融合标签蛋白 [7] = biological target: CD22 FC融合标签蛋白 (UniProt P20273); experiment: ELISA, purified antibody at dilution 1K on coated CD22 protein (1 μg/ml)

ELISA reading (OD) at dilution 25K (CD22 FC融合标签蛋白 [1]): 3.52
ELISA reading (OD) at dilution 125K (CD22 FC融合标签蛋白 [2]): 1.92
ELISA reading (OD) at dilution 3125k (CD22 FC融合标签蛋白 [3]): 0.203
OD450 (CD22 FC融合标签蛋白 [4]): 1.93
ELISA reading (OD) at dilution 625K (CD22 FC融合标签蛋白 [5]): 0.528
binding result (CD22 on Raji细胞): binds
ELISA reading (OD) at dilution 15625k (CD22 FC融合标签蛋白 [6]): 0.146
B1: 命名为8B5的兔重组单克隆抗体 (antibody, V domains shown)
VH: QEQLKESGGGLVTPGGSLTLTCTVSGIDLSSYAMGWVRQAPGKGLEYIGIVTYAGSAYYASWARGRFTISKTSTTVDLKITSPTTEDTATYFCARGVDNFYTLPDAFDPWGPGTLVTVS
VL: AYDMTQTPASVSAAVGGTVTINCQASQSISRFLSWYQQKPGQRPKLLIYRASTLASGVSSRFEGSGSGTQFTLTISGVECADAATYYCQQGDTYINVDNPFGGGTEVVVK
notes: Rabbit recombinant monoclonal antibody expressed in 293 cells

ELISA reading (OD) at dilution 25K (CD22 FC融合标签蛋白 [1]): 3.37
ELISA reading (OD) at dilution 125K (CD22 FC融合标签蛋白 [2]): 1.39
ELISA reading (OD) at dilution 3125k (CD22 FC融合标签蛋白 [3]): 0.171
OD450 (CD22 FC融合标签蛋白 [4]): 1.86
ELISA reading (OD) at dilution 625K (CD22 FC融合标签蛋白 [5]): 0.405
binding result (CD22 on Raji细胞): binds
ELISA reading (OD) at dilution 15625k (CD22 FC融合标签蛋白 [6]): 0.125
B2: 命名为10F9的兔重组单克隆抗体 (antibody, V domains shown)
VH: QSVEESGGRLVTPGTPLTLTCTVSGFSLNTDAMIWVRQAPGKGLEYIGIIGSSGSAFFASWAKGRFTISKTSTTVDLTIISPTTEDTATYFCARFTGYGGYGRGGMDPWGPGTLVTVSS
VL: AQVLTQTPSSVSAAVGGTVTINCQSSESVHNNNWLSWYQQKPGQPPKLLIYKASTLASGVPSRFSGSGSGTQFTLTISGVQCDDAATYYCQATYNSGGWYVAFGGGTEVVVK
notes: as for B1

ELISA reading (OD) at dilution 25K (CD22 FC融合标签蛋白 [1]): 3.1
ELISA reading (OD) at dilution 125K (CD22 FC融合标签蛋白 [2]): 1.33
ELISA reading (OD) at dilution 3125k (CD22 FC融合标签蛋白 [3]): 0.18
OD450 (CD22 FC融合标签蛋白 [4]): 2.12
ELISA reading (OD) at dilution 1K (CD22 FC融合标签蛋白 [7]): 3.95
ELISA reading (OD) at dilution 625K (CD22 FC融合标签蛋白 [5]): 0.382
binding result (CD22 on Raji细胞): binds
ELISA reading (OD) at dilution 15625k (CD22 FC融合标签蛋白 [6]): 0.12
B3: 命名为9A3的兔重组单克隆抗体 (antibody, V domains shown)
V domain 1: QSVEESGGRLVTPGTPLTLTCTVSGIDLSSYWMNWVRQAPGKGLEWIGIIWSDDNTYYANWAKGRFTISKTSSTTVDLTITSPTTEDTATYFCARGYVGDIWGPGTLITVS
V domain 2: ALVMTQTPSSVDVAVGGTVTIRCQASQNIYSGLAWYQQKPGQPPKLLIYGASNLASGVSSRFKGSGSGTQFTLTISGVECADAATYYCQQTYTSDNVDNPFGGGTEVVVE
notes: as for B1
